Results published in patent publication US20110008345A1 (GlaxoSmithKline, published 2011).
Numbering of substitutions follows the chain as printed.

Assays:
[1] = target: T1, recombinant E. coli-expressed human IL-4 (human, UniProt P05112 25-153); experiment: ELISA, IL-4 binding to IL4Ralpha-Fc
T1 construct: made and purified at GSK; also called Interleukin-4; rhIL-4
T1 sequence: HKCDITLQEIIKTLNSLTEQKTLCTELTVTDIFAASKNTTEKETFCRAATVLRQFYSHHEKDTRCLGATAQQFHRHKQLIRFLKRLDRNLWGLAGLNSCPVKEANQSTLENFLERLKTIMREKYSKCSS

[2] = target: T1, recombinant E. coli-expressed human IL-4; experiment: SPR exp 1
[3] = target: T1, recombinant E. coli-expressed human IL-4; experiment: SPR exp 2
[4] = target: T1, recombinant E. coli-expressed human IL-4; experiment: SPR exp 3
[5] = target: T1, recombinant E. coli-expressed human IL-4; experiment: SPR
[6] = target: T2, recombinant E. coli-expressed human IL-13 (human, UniProt P35225 35-146); experiment: SPR
T2 construct: made and purified at GSK; also called Interleukin-13; rhIL-13

[7] = target: T1, recombinant E. coli-expressed human IL-4; experiment: SPR; remark: listed apart in the source
[8] = target: T1, recombinant E. coli-expressed human IL-4; experiment: SPR exp 2; remark: listed apart in the source
[9] = target: T1, recombinant E. coli-expressed human IL-4; experiment: SPR stoichiometry
[10] = target: T1, recombinant E. coli-expressed human IL-4; experiment: SPR, purified
[11] = target: T1, recombinant E. coli-expressed human IL-4; experiment: SPR; remark: listed apart in the source
[12] = target: T1, recombinant E. coli-expressed human IL-4; experiment: SPR exp 1; remark: listed apart in the source
[13] = target: T1, recombinant E. coli-expressed human IL-4; experiment: SPR exp 2; remark: listed apart in the source
[14] = target: T1, recombinant E. coli-expressed human IL-4; experiment: SPR exp 1; remark: listed apart in the source
[15] = target: T1, recombinant E. coli-expressed human IL-4; experiment: SPR; remark: listed apart in the source
[16] = target: T1, recombinant E. coli-expressed human IL-4; experiment: cell-based or functional assay
[17] = target: T3, Recombinant Human HGF R (c-MET)/Fc Chimera (human, UniProt P08581 25-932); experiment: ELISA
T3 construct: bought; also called HGF receptor
T3 sequence (P08581 25-932 limits assumed, change not shown): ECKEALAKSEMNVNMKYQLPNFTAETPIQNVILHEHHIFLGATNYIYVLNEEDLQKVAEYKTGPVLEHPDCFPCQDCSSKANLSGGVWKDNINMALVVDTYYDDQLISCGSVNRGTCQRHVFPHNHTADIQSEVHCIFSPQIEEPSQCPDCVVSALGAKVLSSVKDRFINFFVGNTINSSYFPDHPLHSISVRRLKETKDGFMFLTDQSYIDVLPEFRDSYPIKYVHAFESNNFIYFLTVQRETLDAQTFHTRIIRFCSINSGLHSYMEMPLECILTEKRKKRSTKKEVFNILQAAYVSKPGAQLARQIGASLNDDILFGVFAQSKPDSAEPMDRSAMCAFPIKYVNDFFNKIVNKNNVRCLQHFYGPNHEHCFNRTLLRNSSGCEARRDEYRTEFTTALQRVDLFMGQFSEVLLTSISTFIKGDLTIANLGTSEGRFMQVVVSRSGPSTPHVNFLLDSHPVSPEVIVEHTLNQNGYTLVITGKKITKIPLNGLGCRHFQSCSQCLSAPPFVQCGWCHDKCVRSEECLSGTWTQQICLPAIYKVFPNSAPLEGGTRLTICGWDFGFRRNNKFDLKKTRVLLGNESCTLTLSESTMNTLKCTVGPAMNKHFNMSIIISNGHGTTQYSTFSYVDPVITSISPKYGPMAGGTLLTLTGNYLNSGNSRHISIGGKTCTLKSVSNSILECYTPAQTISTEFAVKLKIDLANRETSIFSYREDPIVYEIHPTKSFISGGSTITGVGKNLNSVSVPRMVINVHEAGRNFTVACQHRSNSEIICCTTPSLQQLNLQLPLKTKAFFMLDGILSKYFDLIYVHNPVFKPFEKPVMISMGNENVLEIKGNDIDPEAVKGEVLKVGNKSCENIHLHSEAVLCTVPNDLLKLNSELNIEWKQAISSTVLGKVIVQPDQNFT

[18] = target: recombinant human TNF-alpha (human, UniProt P01375 77-233); experiment: ELISA
[19] = target: recombinant Sf21-expressed human IL-5 (human, UniProt P05113 20-134); experiment: ELISA
recombinant human VEGF = target: T4, recombinant human VEGF (human, UniProt P15692-4 27-191); experiment: ELISA
T4 construct: also called VEGF165; hVEGF165

[20] = target: recombinant E. coli-expressed human IL-18 (human, UniProt Q14116 37-193); experiment: ELISA
RNAse A = target: T5, RNAse A (UniProt P61823 27-150); experiment: ELISA
T5 sequence (looked up): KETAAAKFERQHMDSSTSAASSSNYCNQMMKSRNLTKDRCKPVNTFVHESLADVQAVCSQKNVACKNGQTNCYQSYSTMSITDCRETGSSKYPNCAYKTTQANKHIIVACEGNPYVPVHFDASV

HEL (Hen Egg Lysozyme) = target: T6, HEL (Hen Egg Lysozyme) (hen, UniProt P00698 19-147); experiment: ELISA
T6 construct: also called hen egg white lysozyme
T6 sequence (P00698 19-147): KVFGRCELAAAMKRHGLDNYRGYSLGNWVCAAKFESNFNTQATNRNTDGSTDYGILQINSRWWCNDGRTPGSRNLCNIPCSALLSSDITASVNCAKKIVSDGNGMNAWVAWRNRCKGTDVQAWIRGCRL

recombinant human IL-12 = target: T7, recombinant human IL-12 (human, UniProt P29459 23-219; P29460 23-328); experiment: ELISA
T7 sequence (looked up) 1: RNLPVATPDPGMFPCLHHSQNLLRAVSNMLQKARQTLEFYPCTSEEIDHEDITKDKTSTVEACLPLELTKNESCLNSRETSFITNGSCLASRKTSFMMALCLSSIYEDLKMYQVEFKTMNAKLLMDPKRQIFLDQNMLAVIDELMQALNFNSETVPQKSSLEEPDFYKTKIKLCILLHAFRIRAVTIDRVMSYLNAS
T7 sequence (looked up) 2: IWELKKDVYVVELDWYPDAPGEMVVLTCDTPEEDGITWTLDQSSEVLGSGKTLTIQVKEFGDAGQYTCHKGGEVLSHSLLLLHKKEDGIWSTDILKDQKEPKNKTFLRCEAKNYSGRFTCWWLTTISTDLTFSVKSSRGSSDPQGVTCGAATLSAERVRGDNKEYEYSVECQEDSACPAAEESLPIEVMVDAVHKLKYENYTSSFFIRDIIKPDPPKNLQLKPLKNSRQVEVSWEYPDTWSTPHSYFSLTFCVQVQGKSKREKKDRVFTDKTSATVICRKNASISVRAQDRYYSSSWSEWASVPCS

[21] = target: T1, recombinant E. coli-expressed human IL-4; experiment: cell-based or functional assay; remark: listed apart in the source
[22] = target: T8, recombinant E. coli-expressed cynomolgus IL-4 (cynomolgus, UniProt P79339 25-153); experiment: cell-based or functional assay
T8 sequence (looked up): T1 sequence with E26K, V29I, F33L

[23] = target: T1, recombinant E. coli-expressed human IL-4; experiment: SPR, purified; remark: listed apart in the source
[24] = target: T9, recombinant E. coli-expressed cynomolgus IL-13 (cynomolgus, UniProt Q0PW92 21-132); experiment: SPR
T9 construct: also called cyno IL-13

[25] = target: T8, recombinant E. coli-expressed …; experiment: SPR
[26] = target: T2, recombinant E. coli-expressed human …; experiment: SPR exp 3
[27] = target: T2, recombinant E. coli-expressed human …; experiment: SPR; remark: listed apart in the source
[28] = target: T10, recombinant human IGF-1R-his tag (human, UniProt P08069 31-932); experiment: ELISA
T10 construct: bought; also called rhIGF-1R

B1: Pascolizumab (Anti-human IL-4 monoclonal antibody) (antibody, human IgG1, kappa, V domains shown)
VH: QVTLRESGPALVKPTQTLTLTCTFSGFSLSTSGMGVSWIRQPPGKGLEWLAHIYWDDDKRYNPSLKSRLTISKDTSRNQVVLTMTNMDPVDTATYYCARRETVFYWYFDVWGRGTLVTVSS
VL: DIVLTQSPSSLSASVGDRVTITCKASQSVDYDGDSYMNWYQQKPGKAPKLLIYAASNLESGIPSRFSGSGSGTDFTFTISSLQPEDIATYYCQQSNEDPPTFGQGTKVEIKR
notes: also called anti-human IL4 mAb; IL-4 mAb
[1]
  IC50: 3.45 nM
[2]
  Kd: 0.03 nM
  koff: 0.00016 s⁻¹
  kon: 5.3e+06 M⁻¹ s⁻¹
[3]
  Kd: 0.06 nM
  koff: 0.000123 s⁻¹
  kon: 2.04e+06 M⁻¹ s⁻¹
[4]
  Kd: 0.013 nM
[5]
  Kd: 0.06 nM
  koff: 0.000123 s⁻¹
  kon: 2.04e+06 M⁻¹ s⁻¹
[6]
  binding result: no binding
[7]
  Kd: 0.00572 nM
  koff: 2.43e-05 s⁻¹
  kon: 4.25e+06 M⁻¹ s⁻¹
[8]
  Kd: 0.011 nM
[9]
  Stoichiometry: 1.8
[10]
  Kd: 0.03 nM
[11]
  Kd: 0.037 nM
[12]
  Kd: 0.0137 nM
[13]
  Kd: 0.011 nM
[14]
  Kd: 0.0137 nM
[15]
  Kd: 0.02 nM
[16]
  Mean IC50 (whole blood phospho-STAT6): 2.44 nM
[17]
  binding result: no binding
[18]
  binding result: no binding (tested: 1 ug/ml)
[19]
  binding result: no binding
Recombinant human VEGF
  binding result: no binding
[20]
  binding result: no binding
RNAse A
  binding result: no binding (tested: 2 ug/mL)
HEL (Hen Egg Lysozyme)
  binding result: no binding
Recombinant human IL-12
  binding result: no binding
[21]
  Mean ND50 (TF-1): 1.36 nM
[22]
  Mean ND50 (TF-1): 2.62 nM
[23]
  Kd: 0.037 nM
[24]
  binding result: no binding
[25]
  Kd: 0.046 nM
  koff: 0.000108 s⁻¹
  kon: 2.34e+06 M⁻¹ s⁻¹

B2: 586H-210 GS removed (bispecific antibody, human IgG1, kappa)
heavy: not shown
light: DIVMTQSPLSLPVTPGEPASISCRSSQNIVHINGNTYLEWYLQKPGQSPRLLIYKISDRFSGVPDRFSGSGSGTDFTLKISRVEADDVGIYYCFQGSHVPWTFGQGTKLEIKRTVAAPSVFIFPPSDEQLKSGTASVVCLLNNFYPREAKVQWKVDNALQSGNSQESVTEQDSKDSTYSLSSTLTLSKADYEKHKVYACEVTHQGLSSPVTKSFNRGEC
notes: also called BPC1601
[1]
  IC50: 36.2 nM
[26]
  Kd: 0.438 nM
[27]
  Kd: 0.44 nM
Recombinant human VEGF
  binding result: no binding
[28]
  binding result: no binding
[24]
  Kd: 0.044 nM
  koff: 2.24e-05 s⁻¹
  kon: 507000 M⁻¹ s⁻¹
[25]
  binding result: binds
